Assay results as given in patent publication US20030180295A1, “Angiocidin: a Cys-Ser-Val-Thr-Cys-Gly specific tumor cell adhesion receptor” (Philadelphia Health and Education Corporation, priority 1999, published 2003).

Tests used:
[1] = tested on: Bovine aortic endothelial cells (BAEC); test: ALAMAR BLUE cell viability assay; format: cell-based
Experimental: Bovine aortic endothelial cells (BAEC), human umbilical vein endothelial cells (HUVEC), fibroblast cells, A549 human lung carcinoma cells (A549), MDA-MB231 human breast carcinoma cells (MB231), MCF7 human breast carcinoma cells (MCF7) were treated with 37 μg/ml of receptor, or buffer alone, for 24 hours. Viability of the cells was measured using the ALAMAR BLUE™ assay, which measures the capacity of cells to metabolize the ALAMAR BLUE™ dye. The ALAMAR BLUE™ assay (available from Biosource International, Camarillo, Calif.) quantitatively measures the proliferation of cell lines and can establish the relative cytotoxicity of chemical agents. […] Data can be collected using either fluorescence-based instrumentation (530-560 nm excitation wavelength and 590 nm emission wavelength) or absorbance-based instrumentation (570 nm and 600 nm).
BAEC and BSM cells were treated with increasing concentrations of angiocidin (0, 0.625, 1.25, 2.5, 5, 15, 26 and 37 μg/ml) for 24 hours. Cell viability was measured using the ALAMAR BLUE Tm assay. […]
Bovine aortic endothelial cells (BAEC) were cultured overnight in serum-free media containing either 37 μg/ml his-tagged angiocidin or his-tagged GST. […] Viability was measured by the ALAMAR BLUE™ assay. […]
The endothelial cells (BAEC) were incubated overnight 37 μg/ml of the angiocidin, fragments, and GST. Viability was measured using the ALAMAR BLUE™ assay.

[2] = target: TSP-1 (Homo sapiens, UniProt P07996); test: Optical binding of angiocidin fragments to TSP-1 derivatized cuvette; conditions: test proteins at 10 nm in PBS buffer
Sequence of TSP-1 (P07996 19-1170): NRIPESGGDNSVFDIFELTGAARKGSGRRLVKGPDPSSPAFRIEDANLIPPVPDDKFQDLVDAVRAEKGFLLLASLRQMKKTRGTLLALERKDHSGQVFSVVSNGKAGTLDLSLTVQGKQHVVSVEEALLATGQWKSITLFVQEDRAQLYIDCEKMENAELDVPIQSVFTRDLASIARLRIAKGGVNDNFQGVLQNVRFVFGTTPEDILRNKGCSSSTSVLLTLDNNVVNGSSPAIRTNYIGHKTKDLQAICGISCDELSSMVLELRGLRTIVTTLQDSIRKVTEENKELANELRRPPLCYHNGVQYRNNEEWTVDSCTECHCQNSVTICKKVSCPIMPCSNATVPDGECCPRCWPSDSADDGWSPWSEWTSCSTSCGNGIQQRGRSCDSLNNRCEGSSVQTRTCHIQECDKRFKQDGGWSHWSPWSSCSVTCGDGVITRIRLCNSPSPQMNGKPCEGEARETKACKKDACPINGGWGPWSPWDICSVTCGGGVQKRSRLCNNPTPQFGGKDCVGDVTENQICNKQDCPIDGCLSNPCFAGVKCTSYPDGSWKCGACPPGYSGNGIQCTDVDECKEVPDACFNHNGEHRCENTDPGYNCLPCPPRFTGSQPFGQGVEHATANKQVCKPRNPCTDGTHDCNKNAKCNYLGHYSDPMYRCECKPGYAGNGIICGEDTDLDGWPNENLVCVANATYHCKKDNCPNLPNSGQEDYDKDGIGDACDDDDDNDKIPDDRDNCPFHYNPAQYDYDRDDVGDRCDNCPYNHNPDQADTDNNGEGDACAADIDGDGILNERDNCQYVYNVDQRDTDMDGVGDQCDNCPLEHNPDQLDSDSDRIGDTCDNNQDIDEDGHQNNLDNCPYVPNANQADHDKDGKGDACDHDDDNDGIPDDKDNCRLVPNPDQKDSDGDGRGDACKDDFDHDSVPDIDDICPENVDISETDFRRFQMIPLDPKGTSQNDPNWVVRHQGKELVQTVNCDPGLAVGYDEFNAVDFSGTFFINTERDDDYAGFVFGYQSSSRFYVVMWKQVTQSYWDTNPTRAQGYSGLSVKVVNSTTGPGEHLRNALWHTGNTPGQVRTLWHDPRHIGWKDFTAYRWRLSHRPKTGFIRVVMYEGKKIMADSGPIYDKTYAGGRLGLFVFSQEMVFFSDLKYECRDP
Experimental: This study examines the amino terminal (Met1-Lys132) and carboxy terminal (IIe248-Lys380) portions of angiocidin (SEQ ID NOS: 24 and 25, respectively). The binding of undenatured recombinant angiocidin fragments was compared to full length angiocidin. GST was used as a negative control. Binding was evaluated using an optical binding method that uses a cuvette to which TSP-1 is covalently coupled. A laser beam was used to detect whether the test protein (fragments, angiocidin, or GST) is bound to the TSP-1 derivatized cuvette surface. The cuvette was derivatized with 1 μg of TSP-1. The cuvette surfaces were blocked with a 1% BSA solution to prevent nonspecific binding. The test proteins were added at a concentration of […] in a PBS buffer.

B1: amino terminal fragment Met1-Lys132: amino terminal fragment Met1-Lys132 of angiocidin (SEQ ID NO: 24) (protein, listed as Homo sapiens)
chain: MVLESTMVCVDNSEYMRNGDFLPTRLQAQQDAVNIVCHSKTRSNPENNVGLITLANDCEVLTTLTPDTGRILSKLHTVQPKGKITFCTGIRVAHLALKHRQGKNHKMRIIAFVGSPVEDNEKDLVKLAKRLK
Q: Which “anti-endothelial activity compared to angiocidin” value ([1]; 37 μg/ml, overnight) does the source give for B1 here?
A: The value was “has the same anti-endothelial activity as the full length angiocidin”.

Q: And the “cell viability, angiocidin and fragments” value ([1]; Example 27, FIG. 34)?
A: The value was “inhibited cell viability”.

Q: And the “binding to TSP-1 derivatized cuvette” value [2]?
A: The value was “show very similar binding at the nano molar range”.
